B1: Focal adhesion kinase 1 (Gallus gallus (Chicken)), Q00944 (parent)
chain: MAAAYLDPNLNHTPSSSAKTHLGTGMERSPGAMERVLKVFHYFENSSEPTTWASIIRHGDATDVRGIIQKIVDCHKVKNVACYGLRLSHLQSEEVHWLHLDMGVSNVREKFELAHPPEEWKYELRIRYLPKGFLNQFTEDKPTLNFFYQQVKNDYMLEIADQVDQEIALKLGCLEIRRSYGEMRGNALEKKSNYEVLEKDVGLRRFFPKSLLDSVKAKTLRKLIQQTFRQFANLNREESILKFFEILSPVYRFDKECFKCALGSSWIISVELAIGPEEGISYLTDKGANPTHLADFNQVQTIQYSNSEDKDRKGMLQLKIAGAPEPLTVTAPSLTIAENMADLIDGYCRLVNGATQSFIIRPQKEGERALPSIPKLANNEKQGVRSHTVSVSETDDYAEIIDEEDTYTMPSTRDYEIQRERIELGRCIGEGQFGDVHQGIYMSPENPAMAVAIKTCKNCTSDSVREKFLQEALTMRQFDHPHIVKLIGVITENPVWIIMELCTLGELRSFLQVRKFSLDLASLILYAYQLSTALAYLESKRFVHRDIAARNVLVSATDCVKLGDFGLSRYMEDSTYYKASKGKLPIKWMAPESINFRRFTSASDVWMFGVCMWEILMHGVKPFQGVKNNDVIGRIENGERLPMPPNCPPTLYSLMTKCWAYDPSRRPRFTELKAQLSTILEEEKLQQEERMRMESRRQVTVSWDSGGSDEAPPKPSRPGYPSPRSSEGFYPSPQHMVQPNHYQVSGYSGSHGIPAMAGSIYPGQASLLDQTDSWNHRPQEVSAWQPNMEDSGTLDVRGMGQVLPTHLMEERLIRQQQEMEEDQRWLEKEERFLVMKPDVRLSRGSIEREDGGLQGPAGNQHIYQPVGKPDHAAPPKKPPRPGAPHLGSLASLNSPVDSYNEGVKIKPQEISPPPTANLDRSNDKVYENVTGLVKAVIEMSSKIQPAPPEEYVPMVKEVGLALRTLLATVDESLPVLPASTHREIEMAQKLLNSDLAELINKMKLAQQYVMTSLQQEYKKQMLTAAHALAVDAKNLLDVIDQARLKMISQSRPH

Variants of: B1
Settings: with paxi_chick PXN

effect of a mutation on the interaction | Variant
decreasing interaction | I937A
decreasing interaction | E949A;K956A;R963A
